Data published in patent publication US9493781B2, “Synthetic brassica-derived chloroplast transit peptides” (DOW AGROSCIENCES LLC, priority 2012, dated 2016).

Tests used:
[1] = system: Arabidopsis; assay: dgt-28, dgt-32, dgt-33, dgt-3, dgt-7 transformed Arabidopsis (T1, T2, T3) response to postemergence glyphosate, % visual injury; type: in vivo, Arabidopsis thaliana; settings: 14 days after application
Method in brief: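 Transgenic T1, T2 and T3 Arabidopsis (low-copy events for T2/T3, hemizygous and homozygous in T2) sprayed postemergence with glyphosate at 105, 420, 1,680 or 3,360 g ae/ha. Visual injury scored 2 weeks after treatment as mean, SD and range. Non-transformed Columbia served as sensitive control.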

[2] = system: Arabidopsis; assay: Heritability progeny test of T1 families (T2 plants) with glufosinate, Arabidopsis; type: in vivo, Arabidopsis thaliana; settings: progeny test of 100 T2 plants, glufosinate 200 g ae/ha
Source text: Heritability. Confirmed transgenic T1 Arabidopsis events were self-pollinated to produce T2 seed. These seed were progeny tested by applying Ignite™ herbicide containing glufosinate (200 g ae/ha) to 100 random T2 siblings. […] The T1 families (T2 plants) segregated in the anticipated 3 Resistant: 1 Sensitive model for a dominantly inherited single locus with Mendelian inheritance as determined by Chi square analysis (P>0.05). […] Seed were collected from 5 to 15 T2 individuals (T3 seed). Twenty-five T3 siblings from each of 3-4 randomly-selected T2 families were progeny tested as previously described.

[3] = Table 8, T1 Arabidopsis, 105 g ae/ha glyphosate
[4] = Table 8, T1 Arabidopsis, 420 g ae/ha glyphosate
[5] = Table 8, T1 Arabidopsis, 1680 g ae/ha glyphosate
[6] = Table 8, T1 Arabidopsis, 3360 g ae/ha glyphosate
[7] = Table 10, T1 Arabidopsis, 1,680 g ae/ha glyphosate
[8] = Table 12, T2 Arabidopsis, 1 copy, 420 g ae/ha glyphosate
[9] = Table 12, T2 Arabidopsis, 1 copy, 840 g ae/ha glyphosate
[10] = Table 12, T2 Arabidopsis, 1 copy, 1680 g ae/ha glyphosate
[11] = Table 12, T2 Arabidopsis, 1 copy, 3360 g ae/ha glyphosate

B1: pDAB105532: TraP9 v2 -- dgt-28 v5: binary construct TraP9 v2: dgt-28 v5 (SEQ ID NO:35) (nucleic acid)
DNA: ATGGCACAAGCCAGCCGTATCTGCCAGAATCCATGTGTGATATCCAATCTCCCCAAAAGCAACCACCGTAAGTCCCCTTTCTCTGTCTCACTCAAGACGCATCAGCCTAGAGCCTCTTCATGGGGACTTAAGAAGTCTGGCACCATGCTGAACGGTTCAGTGATTAGACCCGTCAAGGTGACAGCTTCTGTTTCCGCAGCAAGAGGGATGCCAGCCTTGTCTTTACCTGGATCAAAGAGTATCACAGCTAGGGCACTCTTTCTTGCTGCTGCTGCTGATGGGGTTACTACTTTGGTGAGGCCATTGAGAAGTGACGACACAGAAGGATTCGCTGAGGGGTTAGTTCGTTTAGGCTATCGTGTAGGGAGGACACCCGATACTTGGCAAGTCGATGGCAGACCACAAGGACCAGCAGTGGCTGAGGCTGACGTCTACTGTAGAGACGGAGCAACCACCGCTAGATTCTTGCCAACCTTAGCAGCTGCTGGTCACGGAACATACAGATTTGATGCTTCACCACAGATGAGGAGACGTCCTCTTTTGCCCTTAAGCAGAGCCTTGAGGGATTTGGGTGTCGATCTTAGACACGAAGAAGCTGAAGGTCATCACCCTCTGACTGTCCGTGCTGCTGGGGTTGAAGGAGGAGAGGTTACTTTGGATGCTGGTCAGTCAAGTCAGTATCTCACTGCCTTGTTGCTCCTTGGTCCCCTTACAAGACAAGGACTGAGGATAAGGGTTACTGATTTGGTGTCAGCACCATACGTGGAGATTACGCTTGCAATGATGAGGGCTTTCGGAGTTGAAGTGGCAAGGGAGGGAGATGTGTTCGTTGTTCCACCTGGTGGATATCGTGCAACTACGTATGCTATAGAACCCGACGCAAGTACTGCTTCTTACTTCTTCGCAGCTGCTGCTTTGACTCCTGGAGCTGAAGTGACTGTACCTGGGTTAGGCACGGGAGCACTTCAAGGAGATTTGGGATTTGTAGATGTCTTAAGGAGAATGGGAGCCGAGGTGTCCGTAGGAGCTGATGCAACCACTGTTAGAGGAACTGGTGAATTGCGTGGCCTTACAGCCAACATGAGAGACATAAGTGATACGATGCCGACCCTCGCTGCAATAGCACCCTTTGCTAGTGCTCCAGTTAGAATCGAGGATGTTGCCAACACTCGTGTCAAAGAATGTGACAGACTTGAGGCTTGTGCAGAGAACCTTAGGAGGTTGGGAGTAAGGGTTGCAACGGGTCCGGACTGGATTGAGATACACCCTGGTCCAGCTACTGGTGCTCAAGTCACAAGCTATGGTGATCACAGAATTGTGATGTCATTTGCAGTGACTGGACTTCGTGTGCCTGGGATCAGCTTCGACGACCCTGGCTGTGTTCGTAAGACTTTTCCTGGGTTTCACGAGGCTTTCGCAGAATTGAGGCGTGGCATTGGGAGCTGA
modifications: In-frame fusion of dgt-28 v5 and TraP9 v2
In the case of B1, the “% Injury Ave” value [1, 3] is reported as 17.5%, the “% Injury Range (%)” value [1, 3] is reported as 0-60% and the “No. plants with 20-40% injury” value [1, 3] is reported as 0. The “No. plants with <20% injury” value [1, 3] was 3, the “No. plants with >40% injury” value [1, 3] was 1 and the “% Injury Ave” value [1, 4] was 39.5%. For the same molecule, the “% Injury Range (%)” value [1, 4] was 18-70%, the “No. plants with 20-40% injury” value [1, 4] was 1 and the “No. plants with <20% injury” value [1, 4] was 1. For the same molecule, the “No. plants with >40% injury” value [1, 4] was 2, the “% Injury Ave” value [1, 5] was 26.3% and the “% Injury Range (%)” value [1, 5] was 5-80%. The “No. plants with 20-40% injury” value [1, 5] was 0, the “No. plants with <20% injury” value [1, 5] was 3 and the “No. plants with >40% injury” value [1, 5] was 1. The “% Injury Ave” value [1, 6] was 25.8%, the “% Injury Range (%)” value [1, 6] was 8-75% and the “No. plants with 20-40% injury” value [1, 6] was 0. For the same molecule, the “No. plants with <20% injury” value [1, 6] was 3, the “No. plants with >40% injury” value [1, 6] was 1 and the “% Injury Ave” value [1, 7] was 26.3%. The “% Injury Range (%)” value [1, 7] was 5-80%, the “No. plants with 20-40% injury” value [1, 7] was 0 and the “No. plants with <20% injury” value [1, 7] was 3. For the same molecule, the “No. plants with >40% injury” value [1, 7] was 1, the “% Injury Ave” value [1, 8] was 2.0% and the “% Injury Range (%)” value [1, 8] was 0-8%. For the same molecule, the “No. plants with 20-40% injury” value [1, 8] was 0, the “No. plants with <20% injury” value [1, 8] was 4 and the “No. plants with >40% injury” value [1, 8] was 0. The “% Injury Ave” value [1, 9] was 9.0%, the “% Injury Range (%)” value [1, 9] was 8-12% and the “No. plants with 20-40% injury” value [1, 9] was 0. The “No. plants with <20% injury” value [1, 9] was 4, the “No. plants with >40% injury” value [1, 9] was 0 and the “% Injury Ave” value [1, 10] was 7.3%. For the same molecule, the “% Injury Range (%)” value [1, 10] was 2-12%, the “No. plants with 20-40% injury” value [1, 10] was 0 and the “No. plants with <20% injury” value [1, 10] was 4. For the same molecule, the “No. plants with >40% injury” value [1, 10] was 0, the “% Injury Ave” value [1, 11] was 11.0% and the “% Injury Range (%)” value [1, 11] was 10-12%. The “No. plants with 20-40% injury” value [1, 11] was 0, the “No. plants with <20% injury” value [1, 11] was 4 and the “No. plants with >40% injury” value [1, 11] was 0. The “T1 Families Tested Segregating at 1 Locus (%)” value [2] was 100%.
